Results: patent publication US20130323248A1

Columns and labels:
[1] = biological target: Recombinant Human DLL4 (human) (UniProt Q9NR61); assay: Biacore SPR
[2] = biological target: human DLL-4 expressed on the surface of CHO-K1 cells (CHO-DLL-4 cells) (human) (UniProt Q9NR61); assay: flow cytometry (HTFC) on CHO-K1 cells stably expressing DLL-4
[3] = biological target: human DLL-4 expressed on the surface of CHO-K1 cells (CHO-DLL-4 cells) (human) (UniProt Q9NR61); assay: flow cytometry competition; 20 ug/ml FITC-rhNotch-1 on CHO-DLL-4 cells, increasing antibody concentrations

Ka [1] [M⁻¹] | Kd [1] [nM] | EC50 [2] [nM] | IC50 [3] [nM] | Substance
5.86e+08 | 1.71 |  |  | 21M18
 |  | 1.7 | 1.72 | anti-DLL-4 antibody OMP21M18 (Oncomed)
